Data from patent US20130089516A1.
Several values for one entry are separate records, joined by “and”; a condition that tells them apart may be missing. Equal entries are not always repeated.

What was measured:
[1] = target: IL-2 portion of the mouse IL-2/IL-2Rα fusion proteins (mouse) (UniProt P04351); assay: cell-based or functional assay
[2] = target: recombinant human IL-2 (Peprotech) (human) (UniProt P60568); assay: modified phage ELISA, human IL-2 coated; 2 µg/ml MQ1-17H12 added, then scFv-2 phage (competitor)
[3] = target: mouse IL-2/IL-2Rα fusion proteins (2× and 4× linker lengths); assay: sandwich ELISA (JES6-1A12 capture, JES5H4 detection by the general methods), PSA-treated against buffer-treated fusion protein

Chain of IL-2 portion of the mouse IL-2/IL-2Rα fusion proteins (mouse) (P04351 21-169 limits assumed): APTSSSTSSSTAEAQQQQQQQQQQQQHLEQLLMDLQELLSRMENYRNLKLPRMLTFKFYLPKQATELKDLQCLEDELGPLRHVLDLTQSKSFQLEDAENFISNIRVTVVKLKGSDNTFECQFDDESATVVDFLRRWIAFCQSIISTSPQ
Chain of recombinant human IL-2 (Peprotech) (human) (P60568 21-153 limits assumed): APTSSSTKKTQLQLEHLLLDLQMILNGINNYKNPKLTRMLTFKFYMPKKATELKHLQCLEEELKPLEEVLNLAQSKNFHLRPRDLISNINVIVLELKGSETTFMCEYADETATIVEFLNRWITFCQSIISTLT

Which attenuation of IL-2 biologic activity in the intact uncleaved fusion protein against the equivalent amount of free IL-2, CTLL-2 bioassay [1] does the source give for “IL-2Rα portion of the mouse IL-2/IL-2Rα fusion proteins (soluble form of the alpha chain of the IL-2 receptor) (from UniProt P01590 22-236)” here?
Its attenuation of IL-2 biologic activity in the intact uncleaved fusion protein against the equivalent amount of free IL-2, CTLL-2 bioassay is greater than 60 fold.

And the increase of biologically active IL-2 after PSA cleavage of the fusion protein with the 2× linker, CTLL-2 / MTT assay [1]?
Its increase of biologically active IL-2 after PSA cleavage of the fusion protein with the 2× linker, CTLL-2 / MTT assay is 3.5 fold.

And the increase of biologically active IL-2 after PSA cleavage of the fusion protein with the 4× linker, CTLL-2 / MTT assay [1]?
The increase of biologically active IL-2 after PSA cleavage of the fusion protein with the 4× linker, CTLL-2 / MTT assay was 9 fold.

“neutralizing anti-human IL-2 monoclonal antibody MQ1-17H12 (eBioscience)” was tested. Which percent blocking of scFv-2 phage binding [2] did it give?
Its percent blocking of scFv-2 phage binding is 70%.

With “rat anti-mouse IL-2 monoclonal antibody JES6-1A12 (BD Pharmingen)” as the substance, how does the fold increase in the apparent amount of IL-2 detected after PSA cleavage [3] read?
Its fold increase in the apparent amount of IL-2 detected after PSA cleavage is 2 fold and 4 fold.
